Experimental data published in patent publication US20220411498A1 (JACOBIO PHARMACEUTICALS, published 2022).
Residue numbers refer to the chain shown, from its start. One block for each binder: values may come before it.

Legend:
[1] = target: T1, huCD39 recombinant protein (human, UniProt P49961 38-478); test: indirect ELISA, huCD39 recombinant protein coated at 1 ug/mL
T1 construct: the entry is the extracellular domain and ends in a histidine tag; also called soluble huCD39 protein; human CD39 extracellular domain recombinant protein
T1 sequence: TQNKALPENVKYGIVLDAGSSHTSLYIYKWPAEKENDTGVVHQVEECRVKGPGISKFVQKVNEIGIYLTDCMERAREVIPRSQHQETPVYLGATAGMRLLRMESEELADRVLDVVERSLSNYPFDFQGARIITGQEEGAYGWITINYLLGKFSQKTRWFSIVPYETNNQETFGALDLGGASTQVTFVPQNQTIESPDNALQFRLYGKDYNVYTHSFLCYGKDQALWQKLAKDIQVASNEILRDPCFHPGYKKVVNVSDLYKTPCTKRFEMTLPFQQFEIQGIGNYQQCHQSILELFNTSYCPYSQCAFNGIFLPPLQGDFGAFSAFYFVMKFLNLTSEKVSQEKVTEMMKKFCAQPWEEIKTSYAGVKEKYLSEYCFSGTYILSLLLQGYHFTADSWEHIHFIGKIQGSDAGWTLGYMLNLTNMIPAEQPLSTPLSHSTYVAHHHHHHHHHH
Protocol: The Fv region of the four mouse-derived antibodies obtained in Example 1 was fused with the human IgG2 Fc region and constructed into the pcDNA3.1 vector. Then transfected 293F cells to express the antibody proteins, and the antibodies were purified by ProteinA affinity chromatography. […] The next day, the plates were washed 5 times with PBS buffer and blocked with 200 μL/well of 2% skimmed milk powder for 1 h. A certain dose range of chimeric CD39 antibody was incubated for 1 h at room temperature; then washed 5 times with PBST washing buffer (PBS, 0.05% Tween 20). 100 μL of HRP-labeled secondary antibody was added to each well and the plates were incubated for 30 min at room temperature. The plates were washed 5 times again and TMB (Life Technologies) was added for color development for 5 to 10 min. At last, 1N HCl was added to terminate the reaction, and the OD value was measured at 450 nm. GraphPad Prism software was used to generate data plots and the affinity data was counted (FIG. 1).

[2] = target: T2, cyno CD39 on the cell surface (293T/17-cyno CD39 cells) (cyno, UniProt P49961 7-510 (human entry)); test: cell-based or functional assay
T2 chain: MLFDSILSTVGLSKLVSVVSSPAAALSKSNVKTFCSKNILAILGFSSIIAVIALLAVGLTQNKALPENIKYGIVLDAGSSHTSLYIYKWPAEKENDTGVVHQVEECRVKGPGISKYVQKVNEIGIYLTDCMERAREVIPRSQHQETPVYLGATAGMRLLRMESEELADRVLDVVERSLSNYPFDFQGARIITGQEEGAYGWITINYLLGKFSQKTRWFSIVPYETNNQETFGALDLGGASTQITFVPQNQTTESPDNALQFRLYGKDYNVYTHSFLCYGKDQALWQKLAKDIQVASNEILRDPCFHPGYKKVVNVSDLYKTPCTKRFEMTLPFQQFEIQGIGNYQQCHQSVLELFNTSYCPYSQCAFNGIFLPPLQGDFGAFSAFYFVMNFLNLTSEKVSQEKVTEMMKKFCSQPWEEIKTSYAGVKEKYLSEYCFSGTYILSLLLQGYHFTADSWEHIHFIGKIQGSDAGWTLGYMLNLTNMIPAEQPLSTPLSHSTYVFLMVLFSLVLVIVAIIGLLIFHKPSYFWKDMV

[3] = target: T3, huCD39 on the cell surface (293T/17-huCD39 cells) (human, UniProt P49961 1-510); test: cell-based or functional assay
T3 sequence (looked up): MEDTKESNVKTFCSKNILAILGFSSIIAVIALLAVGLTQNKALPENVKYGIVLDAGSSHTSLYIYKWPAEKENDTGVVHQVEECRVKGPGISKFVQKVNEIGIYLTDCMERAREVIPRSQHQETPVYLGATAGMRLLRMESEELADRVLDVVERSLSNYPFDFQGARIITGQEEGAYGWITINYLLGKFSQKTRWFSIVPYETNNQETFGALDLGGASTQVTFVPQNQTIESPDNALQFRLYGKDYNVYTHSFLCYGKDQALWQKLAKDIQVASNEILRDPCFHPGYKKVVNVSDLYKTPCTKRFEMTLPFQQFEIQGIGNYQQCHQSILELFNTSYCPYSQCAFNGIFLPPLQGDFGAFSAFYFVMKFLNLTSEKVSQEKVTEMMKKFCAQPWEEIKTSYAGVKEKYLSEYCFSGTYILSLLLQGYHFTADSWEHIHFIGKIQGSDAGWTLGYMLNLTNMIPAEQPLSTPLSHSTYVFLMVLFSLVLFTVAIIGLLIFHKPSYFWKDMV

[4] = target: T3, huCD39 on the cell surface …; test: flow cytometry on 293T/17-huCD39 cells
Protocol: (§1) Flow cytometry assay: recombinant host cell line 293T/17-huCD39 cells expressing huCD39 and recombinant host cell line 293T/17-cyno CD39 cells expressing cyno CD39 were used to evaluate the binding ability of the chimeric antibody to the natural CD39 protein on the cell surface. The recombinant cells were resuspended in PBS buffer, and 2×10⁶ cells were added to a 96-well U-plate. The chimeric antibody in a certain gradient dilution range incubated for 1h at 4° C. in a refrigerator or on ice, centrifuged at 1500 rpm for 3 min at 4° C., washed three times with PBS buffer, and then incubated for 30 min at 4° C. in the refrigerator or on ice with diluted Alexa Fluor 488-labeled goat anti-human polyclonal antibody (pAb): Goat anti-Human IgG (H+L) Cross-Adsorbed Secondary Antibody, Alexa Fluor 488 (thermo). Finally the cells were washed three times with PBS as described above and analyzed in MACSQuant flow cytometry. GraphPad Prism software was used to generate data plots and count affinity data (FIG. 2). The results are shown in Table 2, and the EC₅₀ values of each chimeric antibody of 293T/17-huCD39 and 293T/17-cyno CD39 was at the level of 10⁻⁹M.

[5] = target: T2, cyno CD39 on the cell surface …; test: flow cytometry on 293T/17-cyno CD39 cells
Protocol: as §1

- Bottom [1]: 0.052 OD450
- EC50 [1]: 1.69 nM
- Top [1]: 1.33 OD450
- Blocking of ATPase activity on cell surface (293T/17-cyno CD39, CellTiter Glo): Bottom [2]: 44500
- Blocking of ATPase activity on cell surface (293T/17-cyno CD39, CellTiter Glo): EC50 [2]: 0.024 nM
- Blocking of ATPase activity on cell surface (293T/17-cyno CD39, CellTiter Glo): Top [2]: 303000
- Blocking of ATPase activity on cell surface (293T/17-huCD39, CellTiter Glo): Bottom [3]: 172000
- Blocking of ATPase activity on cell surface (293T/17-huCD39, CellTiter Glo): EC50 [3]: 0.01 nM
- Blocking of ATPase activity on cell surface (293T/17-huCD39, CellTiter Glo): Top [3]: 800000
- Bottom [4]: 3.81
- EC50 [4]: 4.51 nM
- Top [4]: 156
- Bottom [5]: 3.33
- EC50 [5]: 8.16 nM
- Top [5]: 214
B1: 219 hIgG2 (antibody, V domains shown)
VH: EVQLVESGGGLVKPGGSLKLSCAASGFTFSDYGMHWVRQAPEKGLEWVAYISSGSSIRYYADTVKGRFTISRDNAKNTLFLQMTSLRSEDTAIYYCARDLYYDHVLDYWGQGTTLTVSS
VL: DIQMTQSPSSLSASLGERVSLTCRASQEVSGYLNWLQQKPDGTIKRLIYAASTLDSGVPKRFSGSRSGSDYSLTISSLESEDFADYYCLQYASYPRTFGGGTKVEIKR
notes: Chimeric antibody: mouse Fv fused to the human IgG2 constant region; also called chimeric antibody 219

- Bottom [1]: 0.07 OD450
- EC50 [1]: 4.8 nM
- Top [1]: 1.39 OD450
- Blocking of ATPase activity on cell surface (293T/17-cyno CD39, CellTiter Glo): Bottom [2]: 42200
- Blocking of ATPase activity on cell surface (293T/17-cyno CD39, CellTiter Glo): EC50 [2]: 0.029 nM
- Blocking of ATPase activity on cell surface (293T/17-cyno CD39, CellTiter Glo): Top [2]: 283000
- Blocking of ATPase activity on cell surface (293T/17-huCD39, CellTiter Glo): Bottom [3]: 147000
- Blocking of ATPase activity on cell surface (293T/17-huCD39, CellTiter Glo): EC50 [3]: 0.008 nM
- Blocking of ATPase activity on cell surface (293T/17-huCD39, CellTiter Glo): Top [3]: 1.19e+06
- Bottom [4]: 5.8
- EC50 [4]: 3.8 nM
- Top [4]: 116
- Bottom [5]: 3
- EC50 [5]: 9.49 nM
- Top [5]: 160
B2: 217 hIgG2 (antibody, V domains shown)
VH: B1 VH with I57V, R58I, A61V, I93M, Y108S
VL: B1 VL with V29I, S30G, N34S, V104L
notes: Chimeric antibody: mouse Fv fused to the human IgG2 constant region

- Bottom [1]: 0.046 OD450
- EC50 [1]: 1.4 nM
- Top [1]: 1.64 OD450
- Blocking of ATPase activity on cell surface (293T/17-cyno CD39, CellTiter Glo): Bottom [2]: 42300
- Blocking of ATPase activity on cell surface (293T/17-cyno CD39, CellTiter Glo): EC50 [2]: 0.014 nM
- Blocking of ATPase activity on cell surface (293T/17-cyno CD39, CellTiter Glo): Top [2]: 232000
- Blocking of ATPase activity on cell surface (293T/17-huCD39, CellTiter Glo): Bottom [3]: 119000
- Blocking of ATPase activity on cell surface (293T/17-huCD39, CellTiter Glo): EC50 [3]: 0.004 nM
- Blocking of ATPase activity on cell surface (293T/17-huCD39, CellTiter Glo): Top [3]: 871000
- Bottom [4]: -6.24
- EC50 [4]: 6.56 nM
- Top [4]: 189
- Bottom [5]: 3.23
- EC50 [5]: 8.69 nM
- Top [5]: 209
B3: 201 hIgG2 (antibody, V domains shown)
VH: B1 VH with R58M, T84A, I93M
VL: B1 VL with V29I, S30R, N34I, D41G, A92T, V104L
notes: Chimeric antibody: mouse Fv fused to the human IgG2 constant region, expressed in 293F cells; also called chimeric antibody 201
